According to patent US8143216B2, “Modified human growth hormone” (Ambrx, Inc., priority 2004, dated 2012):

Assays:
[1] = molecular target: T1, human growth hormone receptor on IM-9 cells (Homo sapiens, UniProt P10912); assay: IM-9 pSTAT5 bioassay (STAT5 phosphorylation in IM-9 cells); format: cell-based; conditions: IM-9; WHO hGH is expressed as unity
T1 construct: host or cells: human IM-9 lymphocyte cell line
T1 sequence (P10912 19-638): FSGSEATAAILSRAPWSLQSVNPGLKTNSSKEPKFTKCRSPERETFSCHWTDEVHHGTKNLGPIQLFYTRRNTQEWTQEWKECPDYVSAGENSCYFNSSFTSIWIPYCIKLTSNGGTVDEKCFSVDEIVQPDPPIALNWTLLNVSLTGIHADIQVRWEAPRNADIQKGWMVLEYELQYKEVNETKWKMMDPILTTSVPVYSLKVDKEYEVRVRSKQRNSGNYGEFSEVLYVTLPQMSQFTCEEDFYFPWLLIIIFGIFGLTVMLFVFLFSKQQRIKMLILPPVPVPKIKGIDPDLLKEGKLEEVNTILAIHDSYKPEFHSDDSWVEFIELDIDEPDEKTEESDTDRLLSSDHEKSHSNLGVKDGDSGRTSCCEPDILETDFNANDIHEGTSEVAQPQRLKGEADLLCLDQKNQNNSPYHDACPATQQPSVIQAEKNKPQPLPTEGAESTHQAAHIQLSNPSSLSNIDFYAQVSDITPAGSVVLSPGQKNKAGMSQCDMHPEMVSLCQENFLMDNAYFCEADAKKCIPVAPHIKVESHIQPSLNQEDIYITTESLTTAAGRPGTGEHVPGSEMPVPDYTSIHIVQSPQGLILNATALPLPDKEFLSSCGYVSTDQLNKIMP
Text: (§1) To further assess the biological activity of modified hGH polypeptides, an assay measuring a downstream marker of hGH's interaction with its receptor was used. The interaction of hGH with its endogenously produced receptor leads to the tyrosine phosphorylation of a signal transducer and activator of transcription family member, STAT5, in the human IM-9 lymphocyte cell line. Two forms of STAT5, STAT5A and STAT5B were identified from an IM-9 cDNA library. See, e.g., Silva et al., Mol. Endocrinol. (1996) 10(5):508-518.
IM-9 cells were stimulated with hGH polypeptides of the present invention. The human IM-9 lymphocytes were purchased from ATCC (Manassas, Va.) and grown in RPMI 1640 supplemented with sodium pyruvate, penicillin, streptomycin (Invitrogen, Carlsbad, San Diego) and 10% heat inactivated fetal calf serum (Hyclone, Logan, Utah). The IM-9 cells were starved overnight in assay media (phenol-red free RPMI, 10 mM Hepes, 1% heat inactivated charcoal/dextran treated FBS, sodium pyruvate, penicillin and streptomycin) before stimulation with a 12-point dose range of hGH polypeptides for 10 min at 37° C. Stimulated cells were fixed with 1% formaldehyde before permeabilization with 90% ice-cold methanol for 1 hour on ice. The level of STAT5 phosphorylation was detected by intra-cellular staining with a primary phospho-STAT5 antibody (Cell Signaling Technology, Beverly, Mass.) at room temperature for 30 min followed by a PE-conjugated secondary antibody. Sample acquisition was performed on the FACS Array with acquired data analyzed on the Flowjo software (Tree Star Inc., Ashland, Oreg.). EC50 values were derived from dose response curves plotted with mean fluorescent intensity (MFI) against protein concentration utilizing SigmaPlot.
The interaction of hGH with its receptor leads to the tyrosine phosphorylation of a signal transducer and activator of transcription family member, STAT5, in the human IM-9 lymphocyte cell line.

[2] = test system: rat GHR (L43R) expressing BAF3 cell line, 2E2-2B12-F4; assay: Proliferation by BrdU labeling; format: cell-based, mouse; conditions: WHO hGH is expressed as unity
Description: All cell cultures were maintained at 37° C. in a humidified atmosphere of 5% CO2.

[3] = Pharmacokinetic studies, single s.c. dose in normal male Sprague-Dawley rats; format: in vivo, rat; conditions: single-dose 1 mg/kg bolus s.c., normal male Sprague-Dawley rats
Description: Pharmacokinetic properties of PEG-modified growth hormone compounds were compared to each other and to nonPEGylated growth hormone in male Sprague-Dawley rats (261-425 g) obtained from Charles River Laboratories. Catheters were surgically installed into the carotid artery for blood collection. Following successful catheter installation, animals were assigned to treatment groups (three to six per group) prior to dosing. Animals were dosed subcutaneously with 1 mg/kg of compound in a dose volume of 0.41-0.55 ml/kg. Blood samples were collected at various time points via the indwelling catheter and into EDTA-coated microfuge tubes. Plasma was collected after centrifugation, and stored at −80° C. until analysis. Compound concentrations were measured using antibody sandwich growth hormone ELISA kits from either BioSource International (Camarillo, Calif.) or Diagnostic Systems Laboratories (Webster, Tex.). Concentrations were calculated using standards corresponding to the analog that was dosed. Pharmacokinetic parameters were estimated using the modeling program WinNonlin (Pharsight, version 4.1). Noncompartmental analysis with linear-up/log-down trapezoidal integration was used, and concentration data was uniformly weighted.
Rats (n=3-4 per group) were given a single bolus dose of 1 mg/kg hGH wild-type protein (WHO hGH), His-tagged hGH polypeptide (his-hGH), or His-tagged hGH polypeptide comprising non-natural amino acid p-acetyl-phenylalanine at position 92 covalently linked to 30 kDa PEG (30 KPEG-pAF92(his)hGH). Plasma samples were taken over the indicated time intervals and assayed for injected compound as described.
Rats (n=3-6 per group) were given a single bolus dose of 1 mg/kg protein. hGH polypeptides comprising non-natural amino acid p-acetyl-phenylalanine covalently linked to 30 kDa PEG at each of six different positions were compared to WHO hGH and (his)-hGH. Plasma samples were taken over the indicated time intervals and assayed for injected compound as described. Concentration vs time curves were evaluated by noncompartmental analysis (Pharsight, version 4.1). Values shown are averages (+/− standard deviation). Cmax: maximum concentration; terminal t1/2: terminal half-life; AUC0->inf: area under the concentration-time curve extrapolated to infinity; MRT: mean residence time; Cl/f: apparent total, plasma clearance; Vz/f: apparent volume of distribution during terminal phase.

[4] = test system: hypophysectomized rats; assay: Pharmacodynamic studies in hypophysectomized rats (Example 30); format: in vivo, rat; conditions: s.c., compared with the pAF92 30 kDa PEG compound, p<0.0005
Description: Hypophysectomized male Sprague-Dawley rats were obtained from Charles River Laboratories. Pituitaries were surgically removed at 3-4 weeks of age. Animals were allowed to acclimate for a period of three weeks, during which time bodyweight was monitored. Animals with a bodyweight gain of 0-8 g over a period of seven days before the start of the study were included and randomized to treatment groups. Rats were administered either a bolus dose or daily dose subcutaneously. Throughout the study rats were daily and sequentially weighed, anesthetized, bled, and dosed (when applicable). Blood was collected from the orbital sinus using a heparinized capillary tube and placed into an EDTA coated microfuge tube. Plasma was isolated by centrifugation and stored at −80° C. until analysis.
The peptide IGF-1 is a member of the family of somatomedins or insulin-like growth factors. IGF-1 mediates many of the growth-promoting effects of growth hormone. IGF-1 concentrations were measured using a competitive binding enzyme immunoassay kit against the provided rat/mouse IGF-1 standards (Diagnosic Systems Laboratories). Significant difference was determined by t-test using two-tailed distribution, unpaired, equal variance. […] Rats (n=5-7 per group) were given either a single dose or daily dose subcutaneously. Animals were sequentially weighed, anesthetized, bled, and dosed (when applicable) daily. […]

[5] = molecular target: T2, rat GHR ECD (L43R) (Rattus norvegicus, UniProt P16310, L61R); assay: Biacore analysis of binding of GH to GHR; conditions: rat GHR ECD (L43R) immobilized on a CM5 chip, bivalent analyte model
T2 construct: (GHR ECD, amino acids S29-T238) was cloned into pET20b vector; made in house
T2 sequence (P16310 47-256 L61R): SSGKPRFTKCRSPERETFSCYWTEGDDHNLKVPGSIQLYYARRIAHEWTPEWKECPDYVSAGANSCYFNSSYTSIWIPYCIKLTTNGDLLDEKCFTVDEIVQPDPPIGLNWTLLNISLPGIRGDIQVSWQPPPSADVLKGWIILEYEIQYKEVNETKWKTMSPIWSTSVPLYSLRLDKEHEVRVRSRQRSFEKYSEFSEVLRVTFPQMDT
Description: Cloning and purification of rat GH receptor The extracellular domain of rat GH receptor (GHR ECD, amino acids S29-T238) was cloned into pET20b vector (Novagen) between Nde I and Hind III sites in frame with C-terminal 6H is tag. A mutation of L43 to R was introduced to further approximate the human GH receptor binding site (Souza et al., Proc Natl Acad Sci USA. (1995) 92(4): 959-63). Recombinant protein was produced in BL21 (DE3) E. coli cells (Novagen) by induction with 0.4 mM IPTG at 30° C. for 4-5 hours. After lysing the cells, the pellet was washed four times by resuspending in a dounce with 30 mL of 50 mM Tris, pH 7.6, 100 mM NaCl, 1 mM EDTA, 1% Triton X-100, and twice with the same buffer without Triton X-100. […] Refolding was accomplished by means of passing an aliquot of the inclusion body solution through a S100 (Sigma) gel filtration column, equilibrated with 50 mM Tris, pH 7.8, 1 M L-arginine, 3.7 mM cystamine, 6.5 mM cysteamine. Fractions containing soluble protein were combined and dialyzed against 50 mM Tris, pH 7.6, 200 mM NaCl, 10% glycerol. The sample was briefly centrifuged to remove any precipitate and incubated with an aliquot of Talon resin (Clontech), according to manufacturer's instructions. After washing the resin with 20 volumes of dialysis buffer supplemented with 5 mM imidazole, protein was eluted with 120 mM imidazole in dialysis buffer. Finally, the sample was dialyzed overnight against 50 mM Tris, pH 7.6, 30 mM NaCl, 1 mM EDTA, 10% glycerol, centrifuged briefly to remove any precipitate, adjusted to 20% glycerol final concentration, aliquoted and stored at −80 C. Concentration of the protein was measured by OD(280) using calculated extinction coefficient of ε=65,700 M^−1*cm^−1.
Approximately 600-800 RUs of soluble GHR ECD was immobilized on a Biacore™ CM5 chip, using a standard amine-coupling procedure, as recommended by the manufacturer. […] See, e.g., Cunningham et al. J Mol. Biol. (1993) 234(3): 554-63 and Wells J A. Proc Natl Acad Sci USA (1996) 93(1): 1-6).
Various concentrations of wild type or mutant GH (0.1-300 nM) in HBS-EP buffer (Biacore™, Pharmacia) were injected over the GHR surface at a flow rate of 40 μl/min for 4-5 minutes, and dissociation was monitored for 15 minutes post-injection. The surface was regenerated by a 15 second pulse of 4.5M MgCl2. […] Reference cell with no receptor immobilized was used to subtract any buffer bulk effects and non-specific binding.
Kinetic binding data obtained from GH titration experiments was processed with BiaEvaluation 4.1 software (BIACORE™). […] Equilibrium dissociation constants (Kd) were calculated as ratios of individual rate constants (koff/kon).

[6] = molecular target: T1, human growth hormone receptor on IM-9 cells; assay: Inhibition of WHO hGH induced phosphorylation of STAT5 in IM-9 cells; format: cell-based
Text: as §1

**Q.** For “F92pAF/G120R: hGH with p-acetyl-phenylalanine substituted for F92 and a G120R substitution”, which EC50 [1] is on record?
**A.** The EC50 was greater than 200 µM.

**Q.** What about the EC50 [2] of the same molecule?
**A.** Its EC50 is greater than 200 µM.

**Q.** With “F92pAF/G120R-30KPEG: hGH with G120R and p-acetyl-phenylalanine at position 92 linked to 30 kDa PEG” as the molecule, how does the EC50 [1] read?
**A.** The EC50 was greater than 200 µM.

**Q.** What about the EC50 [2] of the same molecule?
**A.** Its EC50 is greater than 200 µM.

**Q.** Which results are given for “Y35pAF-30KD PEG: hGH polypeptide comprising p-acetyl-phenylalanine at position 35 covalently linked to 30 kDa PEG”?
**A.** AUC0−>inf [3]: 39,918 ng × hr/ml; Cl/f [3]: 0.583 mL/min/kg; Cmax [3]: 1,885 ng/ml; MRT [3]: 19.16 h; Terminal t1/2 [3]: 4.85 h; bodyweight gain at day 9 [4]: greater weight gain was observed; kon [5]: 90000 M⁻¹ s⁻¹

B1: rat GHR (L43R) extra cellular domain: extracellular domain of rat GH receptor (amino acids S29-T238) with L43 to R mutation (protein)
chain: SSGKPRFTKCRSPERETFSCYWTEGDDHNLKVPGSIQLYYARRIAHEWTPEWKECPDYVSAGANSCYFNSSYTSIWIPYCIKLTTNGDLLDEKCFTVDEIVQPDPPIGLNWTLLNISLPGIRGDIQVSWQPPPSADVLKGWIILEYEIQYKEVNETKWKTMSPIWSTSVPLYSLRLDKEHEVRVRSRQRSFEKYSEFSEVLRVTFPQMDT
modifications: left off: small tags and cut ends
notes: extracellular domain of rat GH receptor (amino acids S29-T238) with L43 to R mutation
**Q.** Which “competition against hGH stimulated pSTAT5 phosphorylation / antagonist potency” value [6] does the source give for B1 here?
**A.** Its value is “compete effectively against hGH stimulated pSTAT5 phoshorylation”.
